According to PMC5365074 (Nature structural & molecular biology, 2017):

Molecular target: T1, FLAG-IFNAR2 (human, UniProt P48551 27-515)
T1 sequence: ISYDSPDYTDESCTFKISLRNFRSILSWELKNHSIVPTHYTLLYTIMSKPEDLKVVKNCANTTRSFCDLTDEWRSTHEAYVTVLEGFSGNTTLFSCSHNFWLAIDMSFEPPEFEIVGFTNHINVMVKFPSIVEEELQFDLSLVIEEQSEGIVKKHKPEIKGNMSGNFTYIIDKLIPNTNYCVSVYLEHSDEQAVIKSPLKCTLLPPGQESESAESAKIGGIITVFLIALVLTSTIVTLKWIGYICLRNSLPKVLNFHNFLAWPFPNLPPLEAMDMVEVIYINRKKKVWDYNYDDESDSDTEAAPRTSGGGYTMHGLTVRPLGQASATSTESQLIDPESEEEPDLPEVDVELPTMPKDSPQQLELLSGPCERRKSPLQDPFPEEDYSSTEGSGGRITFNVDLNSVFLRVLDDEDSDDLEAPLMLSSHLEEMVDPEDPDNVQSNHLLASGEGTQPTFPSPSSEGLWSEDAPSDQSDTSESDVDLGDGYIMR
Test: co-IP

B1: USP18 (no tag named), expressed in U6A cells (enzyme)
chain: MSKAFGLLRQICQSILAESSQSPADLEEKKEEDSNMKREQPRERPRAWDYPHGLVGLHNIGQTCCLNSLIQVFVMNVDFTRILKRITVPRGADEQRRSVPFQMLLLLEKMQDSRQKAVRPLELAYCLQKCNVPLFVQHDAAQLYLKLWNLIKDQITDVHLVERLQALYTIRVKDSLICVDCAMESSRNSSMLTLPLSLFDVDSKPLKTLEDALHCFFQPRELSSKSKCFCENCGKKTRGKQVLKLTHLPQTLTIHLMRFSIRNSQTRKICHSLYFPQSLDFSQILPMKRESCDAEEQSGGQYELFAVIAHVGMADSGHYCVYIRNAVDGKWFCFNDSNICLVSWEDIQCTYGNPNYHWQETAYLLVYMKMEC
In the case of B1, the “fold enhancement of the co-precipitation upon expression of STAT2” value is reported as no more than 10 fold.
